# US20210292396A1 (INTERNATIONAL AIDS VACCINE INITIATIVE, published 2021)
# Key:
# Assay in all cases: cell-based or functional assay
# [1] = molecular target: HIV Env of isolate SC422661.8 (HIV)
# [2] = molecular target: HIV Env of isolate BJOX015000.11.5 (HIV)
# [3] = molecular target: HIV Env of isolate Q769.d22 (HIV)
# [4] = molecular target: HIV Env of isolate X2088_c9 (HIV)
# [5] = molecular target: HIV Env of isolate SC05_8C11_2344 (HIV)
# [6] = molecular target: HIV Env of isolate 191955_A11 (HIV)
# [7] = molecular target: HIV Env of isolate 7030102001E5(Rev-) (HIV)
# [8] = molecular target: HIV Env of isolate ZM197M.PB7 (HIV)
# [9] = molecular target: HIV Env of isolate CAP45.2.00.G3 (HIV)
# [10] = molecular target: HIV Env of isolate MS208.A1 (HIV)
# [11] = molecular target: HIV Env of isolate Q23.17 (HIV)
# [12] = molecular target: HIV Env of isolate 6540.v4.c1 (HIV)
# [13] = molecular target: HIV Env of isolate 6240_08_TA5_4622 (HIV)
# [14] = molecular target: HIV Env of isolate Du422.1 (HIV)
# [15] = molecular target: HIV Env of isolate T255-34 (HIV)
# [16] = molecular target: HIV Env of isolate ZM214M.PL15 (HIV)
# HIV Env of isolate CNE21 = HIV Env of isolate CNE21 (HIV)
# [17] = molecular target: HIV Env of isolate Ce1172_H1 (HIV)
# [18] = molecular target: HIV Env of isolate 3301.v1.c24 (HIV)
# [19] = molecular target: HIV Env of isolate HIV-16055-2.3 (HIV)
# HIV Env of isolate CNE53 = HIV Env of isolate CNE53 (HIV)
# [20] = molecular target: HIV Env of isolate 191084_B7-19 (HIV)
# HIV Env of isolate CNE20 = HIV Env of isolate CNE20 (HIV)
# [21] = molecular target: HIV Env of isolate WITO4160.33 (HIV)
# HIV Env of isolate CNE8 = HIV Env of isolate CNE8 (HIV)
# [22] = molecular target: HIV Env of isolate CAP210.2.00.E8 (HIV)
# [23] = molecular target: HIV Env of isolate 1006_11_C3_1601 (HIV)
# [24] = molecular target: HIV Env of isolate 62357_14_D3_4589 (HIV)
# [25] = molecular target: HIV Env of isolate 3103.v3.c10 (HIV)
# [26] = molecular target: HIV Env of isolate ZM247v1(Rev-) (HIV)
# [27] = molecular target: HIV Env of isolate C4118.c09 (HIV)
# [28] = molecular target: HIV Env of isolate 1012_11_TC21_3257 (HIV)
# [29] = molecular target: HIV Env of isolate BJOX028000.10.3 (HIV)
# [30] = molecular target: HIV Env of isolate Du172.17 (HIV)
# HIV Env of isolate 263-8 = HIV Env of isolate 263-8 (HIV)
# [31] = molecular target: HIV Env of isolate 1056_10_TA11_1826 (HIV)
# [32] = molecular target: HIV Env of isolate Ce703010054_2A2 (HIV)
# HIV Env of isolate CNE30 = HIV Env of isolate CNE30 (HIV)
# [33] = molecular target: HIV Env of isolate T251-18 (HIV)
# [34] = molecular target: HIV Env of isolate X1254_c3 (HIV)
# [35] = molecular target: HIV Env of isolate RHPA4259.7 (HIV)
# [36] = molecular target: HIV Env of isolate 1054_07_TC4_1499 (HIV)
# [37] = molecular target: HIV Env of isolate 0330.v4.c3 (HIV)
# [38] = molecular target: HIV Env of isolate QH0692.42 (HIV)
# [39] = molecular target: HIV Env of isolate ZM249M.PL1 (HIV)
binder,measurement,setting,value
"PGT-121 (antibody, V domains shown) VH: QMQLQESGPGLVKPSETLSLTCSVSGASISDSYWSWIRRSPGKGLEWIGYVHKSGDTNYSPSLKSRVNLSLDTSKNQVSLSLVAATAADSGKYYCARTLHGRRIYGIVAFNEWFTYFYMDVWGNGTQVTVSS VL: SDISVAPGETARISCGEKSLGSRAVQWYQHRAGQAPSLIIYNNQDRPSGIPERFSGSPDSPFGTTATLTITSVEAGDEADYYCHIWDSRVPTKWVFGGGTTLTVLG",neutralization IC50,[1],38 ng/mL
same,neutralization IC50,[2],> 50000 ng/mL
same,neutralization IC50,[3],> 50000 ng/mL
same,neutralization IC50,[4],3 ng/mL
same,neutralization IC50,[5],19 ng/mL
same,neutralization IC50,[6],> 50000 ng/mL
same,neutralization IC50,[7],9 ng/mL
same,neutralization IC50,[8],> 50000 ng/mL
same,neutralization IC50,[9],1630 ng/mL
same,neutralization IC50,[10],> 50000 ng/mL
same,neutralization IC50,[11],1 ng/mL
same,neutralization IC50,[12],> 50000 ng/mL
same,neutralization IC50,[13],33 ng/mL
same,neutralization IC50,[14],39 ng/mL
same,neutralization IC50,[15],18700 ng/mL
same,neutralization IC50,[16],460 ng/mL
same,neutralization IC50,HIV Env of isolate CNE21,7 ng/mL
same,neutralization IC50,[17],11 ng/mL
same,neutralization IC50,[18],8 ng/mL
same,neutralization IC50,[19],153 ng/mL
same,neutralization IC50,HIV Env of isolate CNE53,7 ng/mL
same,neutralization IC50,[20],11 ng/mL
same,neutralization IC50,HIV Env of isolate CNE20,1 ng/mL
same,neutralization IC50,[21],334 ng/mL
same,neutralization IC50,HIV Env of isolate CNE8,> 50000 ng/mL
same,neutralization IC50,[22],26300 ng/mL
same,neutralization IC50,[23],2 ng/mL
same,neutralization IC50,[24],2600 ng/mL
same,neutralization IC50,[25],9 ng/mL
same,neutralization IC50,[26],28 ng/mL
same,neutralization IC50,[27],> 50000 ng/mL
same,neutralization IC50,[28],3 ng/mL
same,neutralization IC50,[29],> 50000 ng/mL
same,neutralization IC50,[30],33 ng/mL
same,neutralization IC50,HIV Env of isolate 263-8,648 ng/mL
same,neutralization IC50,[31],4 ng/mL
same,neutralization IC50,[32],> 50000 ng/mL
same,neutralization IC50,HIV Env of isolate CNE30,> 50000 ng/mL
same,neutralization IC50,[33],29000 ng/mL
same,neutralization IC50,[34],14 ng/mL
same,neutralization IC50,[35],15 ng/mL
same,neutralization IC50,[36],64 ng/mL
same,neutralization IC50,[37],50 ng/mL
same,neutralization IC50,[38],302 ng/mL
same,neutralization IC50,[39],> 50000 ng/mL
"ePGT121.15.H1.L1 (antibody, V domains shown) VH: QMQLQESGPGLVKPGETLSLTCSVSGASISSSYWSWLRETPGKGLEWIGYTHHSGDTNYAPSLKSRVHLGLHPSKNQVSLSLTSVTAADTAVYYCARTLHGRRIYGVVAFNEWFTYFYWEVWGNGTQVTVSS VL: SDISVAPGETVRISCGGESIGSRAVQWYQHRAGQAPKLIIYNNQDRPPGIPERFSGSPDIDFGTTATLTITNVEAGDEATYYCHIWDSRRPTNWVFGGGTTLTVL",neutralization IC50,[1],0.5 ng/mL
same,neutralization IC50,[2],> 50000 ng/mL
same,neutralization IC50,[3],> 50000 ng/mL
same,neutralization IC50,[4],0.7 ng/mL
same,neutralization IC50,[5],0.9 ng/mL
same,neutralization IC50,[6],> 50000 ng/mL
same,neutralization IC50,[7],0.2 ng/mL
same,neutralization IC50,[8],> 50000 ng/mL
same,neutralization IC50,[9],5020 ng/mL
same,neutralization IC50,[10],> 50000 ng/mL
same,neutralization IC50,[11],0.4 ng/mL
same,neutralization IC50,[12],> 50000 ng/mL
same,neutralization IC50,[13],2.2 ng/mL
same,neutralization IC50,[14],0.7 ng/mL
same,neutralization IC50,[15],22.1 ng/mL
same,neutralization IC50,[16],0.6 ng/mL
same,neutralization IC50,HIV Env of isolate CNE21,0.1 ng/mL
same,neutralization IC50,[17],0.3 ng/mL
same,neutralization IC50,[18],2.9 ng/mL
same,neutralization IC50,[19],0.3 ng/mL
same,neutralization IC50,HIV Env of isolate CNE53,1 ng/mL
same,neutralization IC50,[20],0.9 ng/mL
same,neutralization IC50,HIV Env of isolate CNE20,0.3 ng/mL
same,neutralization IC50,[21],1.1 ng/mL
same,neutralization IC50,HIV Env of isolate CNE8,> 50000 ng/mL
same,neutralization IC50,[22],5.2 ng/mL
same,neutralization IC50,[23],0.3 ng/mL
same,neutralization IC50,[24],4 ng/mL
same,neutralization IC50,[25],1.7 ng/mL
same,neutralization IC50,[26],0.3 ng/mL
same,neutralization IC50,[27],> 50000 ng/mL
same,neutralization IC50,[28],0.9 ng/mL
same,neutralization IC50,[29],2.1 ng/mL
same,neutralization IC50,[30],0.2 ng/mL
same,neutralization IC50,HIV Env of isolate 263-8,4.4 ng/mL
same,neutralization IC50,[31],0.1 ng/mL
same,neutralization IC50,[32],> 50000 ng/mL
same,neutralization IC50,HIV Env of isolate CNE30,2.4 ng/mL
same,neutralization IC50,[33],5.5 ng/mL
same,neutralization IC50,[34],1.4 ng/mL
same,neutralization IC50,[35],0.3 ng/mL
same,neutralization IC50,[36],0.1 ng/mL
same,neutralization IC50,[37],1.5 ng/mL
same,neutralization IC50,[38],0.8 ng/mL
same,neutralization IC50,[39],2.4 ng/mL
